Source: patent publication US20050074865

B1: ADAMTS4 (enzyme, UniProt O75173 213-837, looked up, species assumed)
A disintegrin and metalloproteinase with thrombospondin motifs 4: FASLSRFVETLVVADDKMAAFHGAGLKRYLLTVMAAAAKAFKHPSIRNPVSLVVTRLVILGSGEEGPQVGPSAAQTLRSFCAWQRGLNTPEDSDPDHFDTAILFTRQDLCGVSTCDTLGMADVGTVCDPARSCAIVEDDGLQSAFTAAHELGHVFNMLHDNSKPCISLNGPLSTSRHVMAPVMAHVDPEEPWSPCSARFITDFLDNGYGHCLLDKPEAPLHLPVTFPGKDYDADRQCQLTFGPDSRHCPQLPPPCAALWCSGHLNGHAMCQTKHSPWADGTPCGPAQACMGGRCLHMDQLQDFNIPQAGGWGPWGPWGDCSRTCGGGVQFSSRDCTRPVPRNGGKYCEGRRTRFRSCNTEDCPTGSALTFREEQCAAYNHRTDLFKSFPGPMDWVPRYTGVAPQDQCKLTCQAQALGYYYVLEPRVVDGTPCSPDSSSVCVQGRCIHAGCDRIIGSKKKFDKCMVCGGDGSGCSKQSGSFRKFRYGYNNVVTIPAGATHILVRQQGNPGHRSIYLALKLPDGSYALNGEYTLMPSPTDVVLPGAVSLRYSGATAASETLSGHGPLAQPLTLQVLVAGNPQDTRLRYSFFVPRPTPSTPRPTPQDWLHRRAQILEILRRRPWAGRK
B2: Cathepsin G (enzyme, UniProt P08311 21-244, looked up, species assumed)
Cathepsin G: IIGGRESRPHSRPYMAYLQIQSPAGQSRCGGFLVREDFVLTAAHCWGSNINVTLGAHNIQRRENTQQHITARRAIRHPQYNQRTIQNDIMLLQLSRRVRRNRNVNPVALPRAQEGLRPGTLCTVAGWGRVSMRRGTDTLREVQLRVQRDRQCLRIFGSYDPRRQICVGDRRERKAAFKGDSGGPLLCNNVAHGIVSYGKSSGVPPEVFTRVSSFLPWIRTTMRS
B3: mesotrypsin, activated with enterokinase (C-terminal myc and His6 tags, expressed from pDEST40) (protein)
chain: IVGGYTCEENSLPYQVSLNSGSHFCGGSLISEQWVVSAAHCYKTRIQVRLGEHNIKVLEGNEQFINAAKIIRHPKYNRDTLDNDIMLIKLSSPAVINARVSTISLPTAPPAAGTECLISGWGNTLSFGADYPDELKCLDAPVLTQAECKASYPGKITNSMFCVGFLEGGKDSCQRDSGGPVVCNGQLQGVVSWGHGCAWKNRPGVYTKVYNYVDWIKDTIAANSEQKLISEEDLNSAVDHHHHHH

What was measured:
[1] = molecular target: recombinant human TNFα (RDI) (UniProt P01375)
Chain of recombinant human TNFα (RDI) (P01375 77-233): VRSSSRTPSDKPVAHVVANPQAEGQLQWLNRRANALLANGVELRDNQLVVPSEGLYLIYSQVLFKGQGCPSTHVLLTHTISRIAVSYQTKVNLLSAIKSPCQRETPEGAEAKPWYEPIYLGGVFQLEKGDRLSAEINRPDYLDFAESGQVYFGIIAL

[2] = molecular target: recombinant human TNFα (RDI), P01375
Chain of recombinant human TNFα (RDI), P01375 (P01375 77-233): as above

| Protein | inactivation of TNFα bioactivity, L929 cytotoxicity bioassay after overnight digestion [1] | cleavage of TNF, Western blot with anti-TNF antibody after overnight incubation [2] | inactivation of TNF bioactivity, L929 bioassay after overnight digestion, 100 nM mesotrypsin and 100 nM TNF [2] | inactivation of TNF bioactivity, L929 bioassay after overnight digestion, mesotrypsin at 86, 43 and 22 nM with 100 nM TNF [2] |
| --- | --- | --- | --- | --- |
| B1 | ADAMTS4 (column: Proteases that did not inactivate TNF) |  |  |  |
| B2 | Cathepsin G (column: Proteases that did not inactivate TNF) |  |  |  |
| B3 |  | but not by enzyme (mesotrypsin) to an appreciatable degree | at equimolar ratios, mesotrypsin achieved only marginal inactivation of TNF in solution | at these concentrations, the enzyme mesotrypsin, is either inactive or marginally active towards TNF |
